For one experiment, the target named is factor X (UniProt P00742). Description: cell-based or functional assay.
Experiment [1] deals with wild-type VIIa in complex with TF1-218 (human) (UniProt P08709). As to the kind of experiment: cell-based or functional assay.
Experiment [2] concerns the target VIIaGln298 in complex with TF1-218 (human) (UniProt P08709). As to the kind of experiment: cell-based or functional assay.
A further experiment concerns the target VIIaGln298 (human) (UniProt P08709). As to the kind of experiment: cell-based or functional assay.
Experiment [3] has as its target full-length recombinant human tissue factor (human) (UniProt P13726). As to the kind of experiment: SPR, full-length TF captured by TF9-10H10, VIIa premixed with 10 µM 5L15. For orientation: Surface plasmon resonance follows binding to a sensor surface in real time, without labels.

Chain of UniProt P00742 (P00742 41-488 limits assumed): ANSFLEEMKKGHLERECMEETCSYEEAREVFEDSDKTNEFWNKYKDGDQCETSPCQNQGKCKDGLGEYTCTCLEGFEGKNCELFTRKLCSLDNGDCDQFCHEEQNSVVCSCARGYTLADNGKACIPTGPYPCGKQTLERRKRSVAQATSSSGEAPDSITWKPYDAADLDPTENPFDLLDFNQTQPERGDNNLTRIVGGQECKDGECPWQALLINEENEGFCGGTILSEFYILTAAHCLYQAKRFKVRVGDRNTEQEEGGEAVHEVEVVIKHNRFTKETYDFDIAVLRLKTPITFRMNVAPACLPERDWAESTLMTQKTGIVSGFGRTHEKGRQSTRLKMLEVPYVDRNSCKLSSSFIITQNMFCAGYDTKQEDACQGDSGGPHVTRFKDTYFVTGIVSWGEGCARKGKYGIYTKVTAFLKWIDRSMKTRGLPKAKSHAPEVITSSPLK

“wild-type VIIa bound to phospholipid reconstituted T.F. (from UniProt P08709 61-212; P08709 213-466; P13726 33-295)”: in the experiment with factor X, the KM (nM) of factor X activation by VIIa bound to phospholipid reconstituted T.F. came to 61 nM.

Regarding “antithrombin III (from UniProt P01008 33-464)”, the time to 50% inhibition of amidolytic activity of T.F.-VIIa complex by 0.5 µM antithrombin III with 5 U/ml heparin was 6 min in experiment [1] and 4.5 min in experiment [2]. Also, the time to 50% inhibition of amidolytic activity of free VIIa by 0.5 µM antithrombin III with 5 U/ml heparin with VIIaGln298 (human) was determined as 31 min.

Take “wild-type VIIa premixed with 10 µM 5L15 (from UniProt P08709 61-212; P08709 213-466)”: the Kd in experiment [3] was 0.8 nM.

Take “VIIaGln298 bound to phospholipid reconstituted T.F. (from UniProt P08709 61-212; P08709 213-466; P13726 33-295)”: the KM (nM) of factor X activation by VIIa bound to phospholipid reconstituted T.F. in the experiment with factor X was found to be 68 nM.

What is called Kd is the free concentration of one partner at which half of the binding sites on the other are occupied at equilibrium, for simple one-to-one binding.
